The text below walks through data of patent EP2017284A1 (INSTITUT PASTEUR, dated 2009).

This test addresses T1, GST-E2 fusion protein (HPV18 E2) (HPV18, UniProt P06790 1-365).
T1 sequence: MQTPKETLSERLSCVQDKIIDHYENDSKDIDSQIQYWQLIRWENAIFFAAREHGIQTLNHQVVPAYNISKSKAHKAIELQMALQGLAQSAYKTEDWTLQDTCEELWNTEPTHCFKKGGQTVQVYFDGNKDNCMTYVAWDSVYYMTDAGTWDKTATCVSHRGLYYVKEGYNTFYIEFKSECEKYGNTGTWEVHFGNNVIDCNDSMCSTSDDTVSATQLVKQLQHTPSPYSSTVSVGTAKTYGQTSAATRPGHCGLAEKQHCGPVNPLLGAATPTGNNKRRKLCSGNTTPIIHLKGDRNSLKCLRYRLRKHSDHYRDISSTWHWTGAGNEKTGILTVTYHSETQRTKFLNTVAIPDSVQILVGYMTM
The experiment in a line: GST pull-down of 35S in vitro translated protein, autoradiography.

B1: caspase 8 catalytic domain (C8 CD) (other)
chain: EFSKERSSSLEGSPDEFSNGEELCGVMTISDSPREQDSESQTLDKVYQMKSKPRGYCLIINNHNFAKAREKVPKLHSIRDRNGTHLDAGALTTTFEELHFEIKPHDDCTVEQIYEILKIYQLMDHSNMDCFICCILSHGDKGIIYGTDGQEAPIYELTSQFTGLKCPSLAGKPKVFFIQACQGDNYQKGIPVETDSEEQPYLEMDLSSPQTRYIPDEADFLLGMATVNNCVSYRNPAEGTWYIQSLCQSLRERCPRGDDILTILTEVNYEVSNKDDKKNMGKQMPQPTFTLRKKLVFPSD
notes: range 180-480; also called caspase catalytic domain
On to B1, for which the binding result is “no binding”.
